T1: recombinant B. taurus αS1-casein expressed from pMOZ1066 (GY1 signal peptide, αS1-casein, FLAG tag, 6 histidine tag, HDEL peptide)
T1 sequence: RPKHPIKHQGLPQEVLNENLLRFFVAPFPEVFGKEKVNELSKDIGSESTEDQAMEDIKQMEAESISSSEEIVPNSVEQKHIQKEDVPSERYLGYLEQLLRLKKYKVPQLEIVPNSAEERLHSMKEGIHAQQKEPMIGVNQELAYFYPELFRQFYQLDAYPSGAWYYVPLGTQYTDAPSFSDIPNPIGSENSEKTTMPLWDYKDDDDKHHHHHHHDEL

T2: recombinant B. taurus β-casein expressed from pMOZ1066 (GY1 signal peptide, β-casein, FLAG tag, 6 histidine tag, HDEL peptide)
T2 sequence: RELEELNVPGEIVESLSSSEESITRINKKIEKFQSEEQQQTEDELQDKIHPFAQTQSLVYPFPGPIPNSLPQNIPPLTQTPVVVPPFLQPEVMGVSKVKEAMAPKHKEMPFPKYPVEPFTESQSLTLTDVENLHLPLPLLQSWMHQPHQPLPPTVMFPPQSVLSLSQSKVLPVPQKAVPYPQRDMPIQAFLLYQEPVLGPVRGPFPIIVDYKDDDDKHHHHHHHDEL

T3: recombinant B. taurus Beta Casein expressed from pMOZ702 (signal peptide, beta casein, HA tag, 6 histidine tag, HDEL peptide)
T3 sequence: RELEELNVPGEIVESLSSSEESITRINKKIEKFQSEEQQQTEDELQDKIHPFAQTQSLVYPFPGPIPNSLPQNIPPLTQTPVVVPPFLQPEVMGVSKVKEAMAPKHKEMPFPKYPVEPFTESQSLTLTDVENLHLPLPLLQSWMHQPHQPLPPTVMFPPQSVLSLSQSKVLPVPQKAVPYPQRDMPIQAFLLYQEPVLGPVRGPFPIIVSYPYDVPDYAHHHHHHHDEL

T4: recombinant B. taurus Beta Casein expressed from pMOZ702 (signal peptide, beta casein, HA tag, 6 histidine tag, HDEL peptide)
T4 chain: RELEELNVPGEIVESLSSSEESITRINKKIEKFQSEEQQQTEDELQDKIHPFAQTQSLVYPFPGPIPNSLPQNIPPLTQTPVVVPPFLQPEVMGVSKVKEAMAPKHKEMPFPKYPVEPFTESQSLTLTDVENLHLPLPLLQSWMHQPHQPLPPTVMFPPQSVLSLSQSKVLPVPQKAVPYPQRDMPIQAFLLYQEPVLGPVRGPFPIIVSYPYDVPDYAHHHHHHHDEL

T5: recombinant B. taurus αS1-casein expressed from pMOZ1066 (GY1 signal peptide, αS1-casein, FLAG tag, 6 … (B. taurus))
T5 construct: also called Alpha S1 casein; alphaS1 casein
T5 chain: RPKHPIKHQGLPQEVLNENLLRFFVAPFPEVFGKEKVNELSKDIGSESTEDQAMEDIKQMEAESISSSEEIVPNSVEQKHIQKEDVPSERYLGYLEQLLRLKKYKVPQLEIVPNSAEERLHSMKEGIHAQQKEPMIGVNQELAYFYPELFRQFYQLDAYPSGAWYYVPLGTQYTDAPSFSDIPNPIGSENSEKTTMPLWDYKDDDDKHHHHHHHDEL


How the values were obtained:
[1] = test system: T1, recombinant B. taurus αS1-casein expressed from pMOZ1066 (GY1 signal peptide, αS1-casein, FLAG tag, 6 histidine tag, HDEL peptide)
[2] = test system: T2, recombinant B. taurus β-casein expressed from pMOZ1066 (GY1 signal peptide, β-casein, FLAG tag, 6 histidine tag, HDEL peptide)
[3] = test system: T3, recombinant B. taurus Beta Casein expressed from pMOZ702 (signal peptide, beta casein, HA tag, 6 histidine tag, HDEL peptide)
[4] = target: T4, recombinant B. taurus Beta Casein …
[5] = target: T5, recombinant B. taurus αS1-casein …; test: TEM with FLAG immunogold labelling of soy embryos; micelle of αS1, β and κ casein in vivo

Molecule	upward band shift of beta casein on anti-beta-casein Western blot (2 bovine kinases together, pMOZ702+pMOZ14+pMOZ15) [3]	upward band shift of beta casein on anti-beta-casein Western blot (2 human kinases together, pMOZ702+pMOZ11+pMOZ12) [4]	upward band shift of beta casein on anti-beta-casein Western blot (co-expressed with HsFam20C and HsFam20A together, pMOZ702+pMOZ11+pMOZ12) [4]	other results
recombinant B. taurus Fam20C expressed from pMOZ1066				phosphorylation by mass spectrometry in 1066 milk [1]: Phosphorylation of alphaSI casein was not detected in 1066 milk (data not shown); phosphosite detected by mass spectrometry in 1066 milk [2]: only one phosphosite S50-p was detected to be phosphorylated in beta casein in both 1066 milk and raw milk (data not shown)
recombinant B. taurus Fam20C expressed from pMOZ14 (enzyme, from a related filing) MLLPKLERSAARPSGEPGCSCAQPAAEAAAPGWAQARGHPGGELEAAASAAGDAGWPNKHTLRILQDFSSDPSSNLTSHSLEKLPPAAEAAEGAPPGQDPGVRRPPDPAHRPLPRDPGPRGPVLPPGLSGDGSLLTRLFQHPLYQVPIPPLTEGDVLFNVNSDIRFNPKAATAENPDWPHEGPEDEFLPTGEAAVDSYPNWLKFHIGINRYELYSRHNPAVGALLQDLGTQKITSVAMKSGGTQLKLIMTFQNYGQALFKPMKQTREQETPPDFFYFSDYERHNAEIAAFHLDRILDFRRVPPVAGRLVNMTKEIRDVTRDKKLWRTFFISPANNVCFYGECSYYCSTEHALCGKPDQIEGSLAAFLPDLALAKRKTWRNPWRRSYHKRKKAEWEVDPDYCEEVRQTPPYDSSHRLLDVMDMTIFDFLMGNMDRHHYETFEKFGNETFIIHLDNGRGFGKHSHDELSILVPLQQCCRIRRSTYLRLQLLAQEEHRLSLLMAEALRADRVAPVLFQPHLEALDRRLRIVLRAVGDCVEKDGLHSVVEDDLGPEHRAAAGRHDEL	In lanes containing beta casein coexpressed with 1 human kinase, 2 human kinases, 1 bovine kinase or 2 bovine kinases the bands are shifted upward on the gel relative to the sample transformed with only beta casein			
recombinant H. sapiens Fam20A expressed from pMOZ12 (protein) QLRPRERPRGCPCTGRASSLARDSAAAASDPGTIVHNFSRTEPRTEPAGGSHSGSSSKLQALFAHPLYNVPEEPPLLGAEDSLLASQEALRYYRRKVARWNRRHKMYREQMNLTSLDPPLQLRLEASWVQFHLGINRHGLYSRSSPVVSKLLQDMRHFPTISADYSQDEKALLGACDCTQIVKPSGVHLKLVLRFSDFGKAMFKPMRQQRDEETPVDFFYFIDFQRHNAEIAAFHLDRILDFRRVPPTVGRIVNVTKEILEVTKNEILQSVFFVSPASNVCFFAKCPYMCKTEYAVCGNPHLLEGSLSAFLPSLNLAPRLSVPNPWIRSYTLAGKEEWEVNPLYCDTVKQIYPYNNSQRLLNVIDMAIFDFLIGNMDRHHYEMFTKFGDDGFLIHLDNARGFGRHSHDEISILSPLSQCCMIKKKTLLHLQLLAQADYRLSDVMRESLLEDQLSPVLTEPHLLALDRRLQTILRTVEGCIVAHGQQSVIVDGPVEQLAPDSGQANLTSHDEL		In lanes containing beta casein coexpressed with 1 human kinase, 2 human kinases, 1 bovine kinase or 2 bovine kinases the bands are shifted upward on the gel relative to the sample transformed with only beta casein	In lanes containing beta casein coexpressed with 2 human kinases the bands are shifted upward on the gel relative to the sample transformed with only beta casein	
recombinant H. sapiens Fam20C expressed from pMOZ11 (protein) LDLLPRLERRGARPSGEPGCSCAQPAAEVAAPGWAQVRGRPGEPPAASSAAGDAGWPNKHTLRILQDFSSDPSSNLSSHSLEKLPPAAEPAERALRGRDPGALRPHDPAHRPLLRDPGPRRSESPPGPGGDASLLARLFEHPLYRVAVPPLTEEDVLFNVNSDTRLSPKAAENPDWPHAGAEGAEFLSPGEAAVDSYPNWLKFHIGINRYELYSRHNPAIEALLHDLSSQRITSVAMKSGGTQLKLIMTFQNYGQALFKPMKQTREQETPPDFFYFSDYERHNAEIAAFHLDRILDFRRVPPVAGRMVNMTKEIRDVTRDKKLWRTFFISPANNICFYGECSYYCSTEHALCGKPDQIEGSLAAFLPDLSLAKRKTWRNPWRRSYHKRKKAEWEVDPDYCEEVKQTPPYDSSHRILDVMDMTIFDFLMGNMDRHHYETFEKFGNETFIIHLDNGRGFGKYSHDELSILVPLQQCCRIRKSTYLRLQLLAKEEYKLSLLMAESLRGDQVAPVLYQPHLEALDRRLRVVLKAVRDCVERNGLHSVVDDDLDTEHRAASARHDEL		In lanes containing beta casein coexpressed with 1 human kinase, 2 human kinases, 1 bovine kinase or 2 bovine kinases the bands are shifted upward on the gel relative to the sample transformed with only beta casein	In lanes containing beta casein coexpressed with 2 human kinases the bands are shifted upward on the gel relative to the sample transformed with only beta casein	
recombinant B. taurus β-casein expressed from pMOZ1066 (GY1 signal peptide, β-casein, FLAG tag, 6 histidine tag, HDEL peptide) (other, S50-p (phosphosite detected by mass spectrometry in 1066 milk; numbering not stated), Co-expressed with BtFam20C in soybean; also called Beta casein) RELEELNVPGEIVESLSSSEESITRINKKIEKFQSEEQQQTEDELQDKIHPFAQTQSLVYPFPGPIPNSLPQNIPPLTQTPVVVPPFLQPEVMGVSKVKEAMAPKHKEMPFPKYPVEPFTESQSLTLTDVENLHLPLPLLQSWMHQPHQPLPPTVMFPPQSVLSLSQSKVLPVPQKAVPYPQRDMPIQAFLLYQEPVLGPVRGPFPIIVDYKDDDDKHHHHHHHDEL				binding result [5]: binds
recombinant B. taurus Fam20A expressed from pMOZ15 (enzyme, from a related filing) MHVSSHLGPRVRSRLQPRERPLGCPCARRAASPAPGPAPSAPRRVEPSGGGDPGSKLRALFAHPLYNEPEEPPLLGPEDSLLAGPEALRYYRRKVARWNRRRKMYKEQLNLTSPEPPVQLRQEASWVQFHLGINRHGLYPRSSPVVSKLLQDMRHFPTISADYSQDEKALLGACDCSQIVKPSGVHLKLVLRFSDFGKAMFKPMRQQRDEETPEDFFYFIDFQRHNAEIAAFHLDRILDFRRVPPTVGRLVNVTREILEVTRNEILQSVFFVSPANNVCFFAKCPYMCKTEYAVCGSPHLLEGSLSAFLPSLNLAPRFSMPSPWIRSYSLAGREEWEVNPLYCEAVKQAYPHNSSSRLLNIIDMAIFDFLIGNMDRHHYEMFTKFGEDGFLIHLDNARGFGRHSHDEVSILAPLFQCCRIKRKTLLHLQLLAQADYRLSDVMRESLLEDQLSPVLTEPHLLALDRRLQTVLRTVQDCIEAHGEQSVVADGPVGQWAPDSSRANATSHDEL	In lanes containing beta casein coexpressed with 1 human kinase, 2 human kinases, 1 bovine kinase or 2 bovine kinases the bands are shifted upward on the gel relative to the sample transformed with only beta casein			
